Experimental data as given in the supplement of paper PMC10567573.
± gives the standard deviation.

Experiment: protein stability index of a GFP-peptide fusion (GPS, HEK-293T) (PSI 1-6); higher = more stable
[1] = treatment: DMSO, c terminus: a fixed tail appended
[2] = treatment: MLN4924 1 uM, 8 h, c terminus: a fixed tail appended
[3] = treatment: DMSO, c terminus: native
[4] = treatment: MLN4924 1 uM, 8 h, c terminus: native
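Also: 24-mer peptide tiles fused after GFP, lentivirally expressed, FACS-sorted into six equal bins by GFP/DsRed ratio, decoded by Illumina sequencing, PSI is the read-weighted mean bin number.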

Sequence | protein stability index [1] | protein stability index [2] | protein stability index [3] | protein stability index [4]
RLREAAALGDIREVQKLVESGVDV [ANKRD40] | 4.28 ± 0.23 | 4.19 ± 0.077 | – | –
RMAIGYLHSHRHLYPEGIGARQQQ [POMT2] | 2.9 ± 0.22 | 3.08 ± 0.21 | – | –
RMLVAASWACAFTNALTHTVAMST [OR3A1] | 3.07 ± 0.24 | 3.18 ± 0.5 | – | –
RNPVSLVVTRLVILGSGEEGPQVG [ADAMTS4] | 2.83 ± 0.2 | – | – | –
RNYLNYGEEGAPGKWQQQGDLQDT [CHGB] | 4.86 ± 0.14 | 4.94 ± 0.39 | – | –
RPELGAALGIYGAPYAAAAAAQSY [IRX6] | 2.73 ± 0.12 | 2.92 ± 0.46 | – | –
RPNRQLGSMVEIAKQLQAVKRKIR [TRIM39] | 2.85 ± 0.43 | 3.03 ± 0.27 | – | –
RPRPQGRSVSEPRDQHPQPSLGDS [RTN2] | 5.04 ± 0.31 | 5.296 ± 0.046 | – | –
RPTYTPPSIMPQKHWVYVKRGGNC [ZBTB22] | 2.78 ± 0.25 | 3.06 ± 0.32 | – | –
RQFEFSVDSFQIILDSLLFFYDCS [TENT5C] | 3.06 ± 0.57 | 3.04 ± 0.61 | – | –
RRGRHEQSPTSRPRKVSSLPPRSC [C22orf15] | 4.35 ± 0.066 | 4.61 ± 0.22 | – | –
RRVKLQLWDTSGQGRFCTIFRSYS [RAB40B] | 2.21 ± 0.57 | 2.08 ± 0.32 | – | –
RSKSGSEEVLCDSCIGNKQKAVKS [TRIM29] | 4.96 ± 0.31 | 5.19 ± 0.11 | – | –
RSLENYHFVDEHGKDQGINIRQKV [CLINT1] | 3.77 ± 0.23 | 3.75 ± 0.4 | – | –
RSVSLSMRKSGAMKKGGIFSAEFL [BNIP3L] | 2.8 ± 0.3 | 2.95 ± 0.34 | – | –
RTPEPLEEFPKREDQEGSPPETSL [MYBL2] | 5.4 ± 0.36 | 5.56 ± 0.23 | – | –
RTTPSRREITGVQAQPGEATSGPP [PALM] | 5.25 ± 0.35 | 5.2 ± 0.093 | – | –
RVKFRRQEANARERNRMHGLNDAL [NEUROD6] | 3.37 ± 0.18 | 3.43 ± 0.34 | – | –
RVTNVGSLLLTPQENESLFTFLGK [WASL] | 2.84 ± 0.27 | 3.19 ± 0.27 | – | –
RWTFEKACHPFLLGPPLVRKRIHD [TOR1AIP2] | 2.64 ± 0.18 | 2.76 ± 0.33 | – | –
RYEPLPPSLPAAGEQDCCGERVVI [KCNA3] | 4.04 ± 0.16 | 4.08 ± 0.34 | – | –
SAAGPPLSEDDKLQGAASHVPEGF [EHMT1] | 5.31 ± 0.3 | 5.21 ± 0.11 | – | –
SAHPVEVFSFDLHEPLSKERVEAF [TMEM175] | 3.82 ± 0.19 | 3.82 ± 0.3 | – | –

Sequence | protein stability index [1] | protein stability index [2] | protein stability index [3] | protein stability index [4]
SALGPPPAASNSSDLFDLMGSSQA [CLINT1] | 4.7 ± 0.22 | 4.49 ± 0.2 | – | –
SALSDTEIQREIGISNALHRLKLR [PPFIA4] | 4.2 ± 0.27 | 4.17 ± 0.25 | – | –
SDAANRNHEALRQAKQEMNESRRQ [PRPH] | 5.2 ± 0.26 | 4.96 ± 0.34 | – | –
SDFLTLHSIIISLVEAGAHTDMTN [FEM1B] | 2.87 ± 0.43 | 2.93 ± 0.54 | – | –
SDLFDLMGSSQATMTSSQSMNFSM [CLINT1] | 2.42 ± 0.22 | 2.66 ± 0.24 | – | –
SDSPDAADSTSFDVQLGDIILTAT [PPTC7] | 3.98 ± 0.27 | 4.01 ± 0.18 | – | –
SEAPNEKLFFVDTGSKEKGLTKKR [NOP53] | 4.98 ± 0.44 | 5.37 ± 0.15 | – | –
SEFLKRFVEATRKWKVGIPSDPLV [ALDH8A1] | 2.53 ± 0.85 | 2.05 ± 0.2 | – | –
SEGELGGPSEPGGTHPEDHQGHSD [RHOBTB2] | 5.54 ± 0.32 | 5.49 ± 0.29 | – | –
SELPPPMERTGGIGDSRPPSFHPH [DVL3] | 4.55 ± 0.25 | 4.61 ± 0.09 | – | –
SESMENINSGYETRRKKGKKDKDI [KMT2E] | 5.01 ± 0.33 | 5.39 ± 0.42 | – | –
SEVTELRRVLQGLEIELQSQLSMK [KRT16] | 2.33 ± 0.2 | 2.33 ± 0.31 | – | –
SFAELFSFMLQDRAKGLLGTTVTF [FEM1C] | 2.79 ± 0.56 | 3.21 ± 0.84 | – | –
SFGLRFGKREAAPGNHGRSAGRG [KISS1] | – | – | 3.23 ± 0.21 | 2.64 ± 0.45
SGESGLRRRGSDPASGEVEASQLR [TMEM40] | 5.56 ± 0.11 | 5.51 ± 0.22 | – | –
SGPEEPLLEEEEKQWGPLEREPVR [RTN2] | 5.51 ± 0.21 | 5.47 ± 0.34 | – | –
SGSRHPPWARGCGMFTFLSSVTAA [SLC2A12] | 2.48 ± 0.43 | 2.38 ± 0.62 | – | –
SHQELHRELLMNHRRGLGVDSKPE [FAM107A] | 4.61 ± 0.22 | 4.57 ± 0.2 | – | –
SIARLEMGPDEYEEMEEEEEEEEE [FBXO3] | 5.41 ± 0.26 | 5.62 ± 0.28 | – | –
SIFGICMVFSGLCPLLLGSVMAIE [PTGFR] | 3.36 ± 0.43 | 3.09 ± 0.84 | – | –
SISASSARFVSSGSGGGYGGGMRV [KRT15] | 3.02 ± 0.22 | 3.55 ± 0.23 | – | –
SISELKHALSGHAKVKPFDPKITC [TPH1] | 2.77 ± 0.45 | 2.93 ± 0.37 | – | –
SIWAQNQVENWSAFAPDFKELDEN [RBBP5] | 4.26 ± 0.26 | 4.23 ± 0.23 | – | –

Sequence | protein stability index [1] | protein stability index [2] | protein stability index [3] | protein stability index [4]
SKFKKLMKQGGAALEGSALANGRA [DLX1] | 3.78 ± 0.34 | 4 ± 0.26 | – | –
SKLVESGIQFMDEPEMAVFLQNAK [TRIM55] | 3.71 ± 0.34 | 4.01 ± 0.21 | – | –
SLAYCLACGGGHLLPYFYIIYMAI [DHCR7] | 2.6 ± 0.64 | 2.45 ± 0.31 | – | –
SLEQANRSLQLRIQELELQAQIHG [TFE3] | 3.51 ± 0.33 | 3.52 ± 0.19 | – | –
SLERGTALFAQVQRGALPAPDPEL [RSAD1] | 4.18 ± 0.45 | 4.41 ± 0.38 | – | –
SLLAGTADGSLRMDDPKGDFITLY [M1AP] | 2.51 ± 0.22 | 2.44 ± 0.52 | – | –
SLNLSTEFISSTKRPYAKELETVD [SERPINB5] | 3.69 ± 0.14 | 3.82 ± 0.21 | – | –
SLNPDGYEKAYEGGSELGGWSLGR [CPXM2] | – | 4.29 ± 0.39 | – | –
SLSDLEIQASAGVISKKAKVKVPQ [ZNF75A] | 4.44 ± 0.21 | 4.55 ± 0.14 | – | –
SLVIGALLASLTGGVLIDRYGRRT [SLC2A12] | 2.89 ± 0.45 | 3.03 ± 0.42 | – | –
SMWTRPQIKDFKEKIQQDADSVIT [ACBD3] | 3.88 ± 0.2 | 4.08 ± 0.42 | – | –
SNMCINNTLVCNGLQNCVYPWDEN [NETO1] | 3.29 ± 0.082 | 3.36 ± 0.44 | – | –
SNYIFVAIFWIVFLLLIVFYTAIT [P2RY14] | 2.26 ± 0.26 | 2.1 ± 0.41 | – | –
SPEALSLGEVAYHDYHGILVDEEE [ADD1] | 5.58 ± 0.27 | 5.54 ± 0.13 | – | –
SPQFEGPLSPPPINYNGIFSLKQE [NEUROD6] | 3.96 ± 0.11 | 4.05 ± 0.17 | – | –
SPSPMDPHMAEQTFEQAIQAASRI [CDC25B] | 4.68 ± 0.16 | 4.56 ± 0.25 | – | –
SPSTLIGSLRTLELGSESQGASES [HDAC6] | 5.08 ± 0.29 | 4.92 ± 0.33 | – | –
SQFHSVRPQGPQLRQQQHKQNKQV [DNAJC4] | 4.85 ± 0.12 | 4.87 ± 0.13 | – | –
SQGAISEGAQRDRFPGRKQPGVHE [C22orf31] | 5.05 ± 0.095 | 5.1 ± 0.18 | – | –
SQGQWGRAWEVDWFSLASVIFLLL [DHCR7] | 2.68 ± 0.033 | 2.39 ± 0.48 | – | –
SQQQPLRNQVVSSTNGELNVDDPT [CSNK1G1] | 5.36 ± 0.24 | 5.27 ± 0.2 | – | –
SQSILPLEHGSIYIPSSYVDSHHE [ESR2] | 3.96 ± 0.19 | 3.95 ± 0.17 | – | –
SQYIAVEAAEGRNKNEVFYQCPDQ [FBXO3] | 4.46 ± 0.061 | 4.74 ± 0.094 | – | –

Sequence | protein stability index [1] | protein stability index [2] | protein stability index [3] | protein stability index [4]
SRASAARVGQLQEALNERHSIINA [LRRC45] | 4.01 ± 0.38 | 3.97 ± 0.19 | – | –
SRCRNSYTEQELKPLTLEALGHLG [DLC1] | 2.85 ± 0.32 | 2.99 ± 0.21 | – | –
SSHSRGPLSWAPCGPIAGSRQALS | 3.42 ± 0.13 | 3.44 ± 0.17 | – | –
SSISPGLHSFTDHQRLMKRRKSV [KCNK9] | – | – | 5.64 ± 0.088 | 5.47 ± 0.23
SSKEEQKLIATSNKPAVKLLYNRS [KCTD10] | 3.9 ± 0.27 | 4.08 ± 0.48 | – | –
SSNLSLDVLRGNDETIGFEDILND [POMP] | 5.08 ± 0.17 | 4.94 ± 0.32 | – | –
SSPRGMVRVCDLLLKKKPPQQQHH [ANKRD17] | 3.2 ± 0.23 | 3.28 ± 0.13 | – | –
SSSRDTDWVVVKEPVIKVAAIDNG [PI4K2A] | 4.25 ± 0.1 | 4 ± 0.11 | – | –
STASTTSTTNSTAAKPAASITSKP [ZNF207] | 5.15 ± 0.11 | 5.01 ± 0.19 | – | –
STNGELNVDDPTGAHSNAPITAHA [CSNK1G1] | 5.39 ± 0.15 | 5.29 ± 0.33 | – | –
SVGFQSNEAASLASTGVGVVKVIS [SLC2A12] | 3.68 ± 0.64 | 3.6 ± 0.41 | – | –
SVICRSLPEGMGPGESGQPPPAC [ALKBH7] | – | – | 2.87 ± 0.71 | 3.5 ± 0.69
SVSLRKAERLRAELLDLKAGGFSI [MYORG] | 2.25 ± 0.36 | 2.39 ± 0.29 | – | –
SWARQESLQERKQALYEYARRRFT [AUP1] | 3.8 ± 0.17 | 3.81 ± 0.12 | – | –
SYFDRGAKGGSRLCTPEGWFSCQG [DFFB] | 2.46 ± 0.14 | 2.6 ± 0.18 | – | –
SYHDGYGEALGRDHSEHLSGSSYR [RBMY1A1] | 4 ± 0.19 | 4.12 ± 0.35 | – | –
SYKDLDVIFGVELPGNEEFQVVKD [TENT5D] | 3.84 ± 0.24 | 3.88 ± 0.099 | – | –
SYLDKVRALEEANTELEVKIRDWY [KRT17] | 2.97 ± 0.23 | 3.07 ± 0.32 | – | –
TACAVIILTIICYLGLPRLEFYRY [SLC29A1] | 3.04 ± 0.18 | 3.1 ± 0.13 | – | –
TAEPFPRLHNLYSTPRCAQQAALP [CBY2] | 2.67 ± 0.2 | 2.66 ± 0.24 | – | –
